From article doi:10.1101/2023.07.07.547762

Biological target: NES-Venus-miniGs
Assay: BRET (NanoLuc-labelled receptor and Venus-labelled mini-Gs recruitment)
Conditions: three independent experiments; for percent of parent: Emax of the DMCH concentration-response; for other: pEC50: pEC50 of the agonist DMCH for mini-Gs recruitment

Substance	percent of parent [%]	other: pEC50
mTAAR7f with N-terminal twin-strep tag and SNAP-tag and C-terminal nanoluc (wild type) (from UniProt Q5QD08) C131A	60	4.9
mTAAR7f with N-terminal twin-strep tag and SNAP-tag and C-terminal nanoluc (wild type) (from UniProt Q5QD08) W286Y	24	5.3
mTAAR7f with N-terminal twin-strep tag and SNAP-tag and C-terminal nanoluc (wild type) (from UniProt Q5QD08) Y132A	17	3.6

The next lines start with the values.

percent of parent [%]	other: pEC50	Substance
0		mTAAR7f with N-terminal twin-strep tag and SNAP-tag and C-terminal nanoluc (wild type) (from UniProt Q5QD08) V315A
0		mTAAR7f with N-terminal twin-strep tag and SNAP-tag and C-terminal nanoluc (wild type) (from UniProt Q5QD08) D127A
47	4.2	mTAAR7f with N-terminal twin-strep tag and SNAP-tag and C-terminal nanoluc (wild type) (from UniProt Q5QD08) Y289A
